Laboratory results as given in US20210032312A1 (Janssen / Centocor, published 2021).
Changes are numbered by the printed parent chain. Each block holds one binder with its values, some of them ahead of it.

Columns and labels:
[1] = biological target: T1, cynomolgus monkey CD8 alpha on primary cynomolgus CD8+ T cells (cynomolgus monkey, UniProt P01732 23-235 (human entry)); test: flow cytometry, cyno CD8+ T cells
T1 construct: also called Cyno CD8alpha; cyno CD8A

human CD8A-Fc (in house) = biological target: T2, human CD8A-Fc (in house) (human, UniProt P01732 22-182, limits assumed); test: SPR (ProteOn), captured hCD8A-Fc
T2 construct: captured by goat anti-human Fc on the ProteOn chip; also called hCD8A-Fc; recombinant human CD8 alpha; not shown: linker/tag and Fc of human IgG1

[2] = biological target: T3, human CD8 alpha (CD8A) on primary human CD8+ T cells (human, UniProt P01732 22-235); test: flow cytometry, human CD8+ T cells
T3 construct: whole, on cells; also called hCD8A
T3 sequence (P01732 22-235): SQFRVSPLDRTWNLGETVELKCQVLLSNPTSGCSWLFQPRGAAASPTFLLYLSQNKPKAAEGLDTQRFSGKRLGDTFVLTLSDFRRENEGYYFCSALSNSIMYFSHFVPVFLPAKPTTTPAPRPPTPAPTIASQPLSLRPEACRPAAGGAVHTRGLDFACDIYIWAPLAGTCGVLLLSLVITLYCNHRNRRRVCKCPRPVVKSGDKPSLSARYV

T1 sequence (P01732 other isoform, or with tags, fused parts or gaps limits assumed): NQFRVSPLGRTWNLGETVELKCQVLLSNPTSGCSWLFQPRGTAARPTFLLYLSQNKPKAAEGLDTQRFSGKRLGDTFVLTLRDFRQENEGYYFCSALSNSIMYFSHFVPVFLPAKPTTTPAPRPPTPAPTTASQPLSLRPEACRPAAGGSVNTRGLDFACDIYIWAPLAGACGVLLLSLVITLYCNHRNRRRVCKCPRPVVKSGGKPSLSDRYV
T2 sequence (P01732 22-182 limits assumed): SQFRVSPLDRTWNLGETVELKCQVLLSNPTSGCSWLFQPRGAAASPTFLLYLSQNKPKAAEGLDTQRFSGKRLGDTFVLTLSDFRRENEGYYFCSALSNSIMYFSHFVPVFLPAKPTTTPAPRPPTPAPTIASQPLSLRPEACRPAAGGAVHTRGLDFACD

B1: P283BR9P1363_G7 (designed binder)
chain: LPAPKNLVVSRVTEDSARLSWSAKKFPRHFDSFLIQYQESEKVGEAIVLTVPGSERSYDLTGLKPGTEYTVSIYGVDVKWEGNRPVASNPLSAIFTT
notes: FN3 domain
Cyno T-cell Binding 0.2 uM (MFI) [1]: 3020 MFI
Cyno T-cell Binding 2 uM (MFI) [1]: 7210 MFI
koff (human CD8A-Fc (in house)): 4.01e-05 s⁻¹
Human T-cell Binding 0.2 uM (MFI) [2]: 2340 MFI
Human T-cell Binding 2 uM (MFI) [2]: 4640 MFI

B2: P283BR9P1363_E6 (designed binder)
chain: B1 chain with S22Y, K24R, P27I, R28S, H29P
notes: FN3 domain
Cyno T-cell Binding 0.2 uM (MFI) [1]: 3720 MFI
Cyno T-cell Binding 2 uM (MFI) [1]: 16800 MFI
koff (human CD8A-Fc (in house)): 0.00136 s⁻¹
Human T-cell Binding 0.2 uM (MFI) [2]: 2080 MFI
Human T-cell Binding 2 uM (MFI) [2]: 8240 MFI

B3: P283BR9P1363_F4 (designed binder)
chain: B1 chain with S22E, A23R, K24I, K25V, F26Q, P27T, R28P
notes: FN3 domain
Cyno T-cell Binding 0.2 uM (MFI) [1]: 4480 MFI
Cyno T-cell Binding 2 uM (MFI) [1]: 20200 MFI
koff (human CD8A-Fc (in house)): 0.000155 s⁻¹
Human T-cell Binding 0.2 uM (MFI) [2]: 2960 MFI
Human T-cell Binding 2 uM (MFI) [2]: 11900 MFI

B4: P283BR9P1363_G2 (designed binder)
chain: B1 chain with S22P, A23K, K24N, K25Q, F26T, P27N
notes: FN3 domain
Cyno T-cell Binding 0.2 uM (MFI) [1]: 5380 MFI
Cyno T-cell Binding 2 uM (MFI) [1]: 15900 MFI
koff (human CD8A-Fc (in house)): 0.000122 s⁻¹
Human T-cell Binding 0.2 uM (MFI) [2]: 3230 MFI
Human T-cell Binding 2 uM (MFI) [2]: 9640 MFI

B7: P283GR7P1367_H8 (designed binder)
chain: LPAPKNLVVSRVTEDSARLSWTAPDAAFDSFSINYWEEDPAGEAIVLTVPGSERSYDLTGLKPGTEYRVLIGGVKGGHGSLPLSAIFTT
notes: FN3 domain
Cyno T-cell Binding 0.2 uM (MFI) [1]: 930 MFI
Cyno T-cell Binding 2 uM (MFI) [1]: 20900 MFI
koff (human CD8A-Fc (in house)): 0.00974 s⁻¹
Human T-cell Binding 0.2 uM (MFI) [2]: 303 MFI
Human T-cell Binding 2 uM (MFI) [2]: 5270 MFI

B9: P283HR7P1368_D1 (designed binder)
chain: LPAPKNLVVSRVTEDSARLSWTAPDAAFDSFGISYYEWAPNGEAIQLSVPGSERSYDLTGLKPGTEYHVVIIGVKGGEPSHPLGAPFTT
notes: FN3 domain
Cyno T-cell Binding 0.2 uM (MFI) [1]: 1410 MFI
Cyno T-cell Binding 2 uM (MFI) [1]: 7850 MFI
koff (human CD8A-Fc (in house)): 0.00166 s⁻¹
Human T-cell Binding 0.2 uM (MFI) [2]: 2310 MFI
Human T-cell Binding 2 uM (MFI) [2]: 14100 MFI

B12: P283ER9P1365_G3 (designed binder)
chain: B9 chain with P86I
notes: FN3 domain
Cyno T-cell Binding 0.2 uM (MFI) [1]: 1470 MFI
Cyno T-cell Binding 2 uM (MFI) [1]: 3480 MFI
koff (human CD8A-Fc (in house)): 0.0025 s⁻¹
Human T-cell Binding 0.2 uM (MFI) [2]: 2920 MFI
Human T-cell Binding 2 uM (MFI) [2]: 12500 MFI

B13: P283HR7P1368_A10 (designed binder)
chain: LPAPKNLVVSRVTEDSARLSWTAPDAAFDSFWIFYLEPFPRGEAIPLEVPGSERSYDLTGLKPGTEYSVDIRGVKGGDHSDPLWAYFTT
notes: FN3 domain
Cyno T-cell Binding 0.2 uM (MFI) [1]: 4770 MFI
Cyno T-cell Binding 2 uM (MFI) [1]: 42300 MFI
koff (human CD8A-Fc (in house)): 0.000513 s⁻¹
Human T-cell Binding 0.2 uM (MFI) [2]: 3230 MFI
Human T-cell Binding 2 uM (MFI) [2]: 13600 MFI

B14: P283GR7P1367_G8 (designed binder)
chain: LPAPKNLVVSRVTEDSARLSWTAPDAAFDSFYIAYPEYVWGGEATSLGEAIVLTVPGSERSYDLTGLKPGTEYFVVITGVKGGLGSYPLSAIFTT
notes: FN3 domain
Cyno T-cell Binding 0.2 uM (MFI) [1]: 1420 MFI
Cyno T-cell Binding 2 uM (MFI) [1]: 21000 MFI
koff (human CD8A-Fc (in house)): 0.00385 s⁻¹
Human T-cell Binding 0.2 uM (MFI) [2]: 450 MFI
Human T-cell Binding 2 uM (MFI) [2]: 1460 MFI

Continued, values first:

Cyno T-cell Binding 0.2 uM (MFI) [1]: 4890 MFI
Cyno T-cell Binding 2 uM (MFI) [1]: 35900 MFI
koff (human CD8A-Fc (in house)): 0.000763 s⁻¹
Human T-cell Binding 0.2 uM (MFI) [2]: 1610 MFI
Human T-cell Binding 2 uM (MFI) [2]: 22800 MFI
B5: P283HR7P1368_H8 (designed binder)
chain: LPAPKNLVVSRVTEDSARLSWTAPDAAFDSFGITYLDPRNGEAISLNVPGSERSYDLTGLKPGTEYWVVIIGVKGGINSYPLGASFTT
notes: FN3 domain

Cyno T-cell Binding 0.2 uM (MFI) [1]: 11600 MFI
Cyno T-cell Binding 2 uM (MFI) [1]: 69800 MFI
koff (human CD8A-Fc (in house)): 0.00215 s⁻¹
Human T-cell Binding 0.2 uM (MFI) [2]: 4940 MFI
Human T-cell Binding 2 uM (MFI) [2]: 31300 MFI
B6: P283HR7P1368_G1 (designed binder)
chain: LPAPKNLVVSRVTEDSARLSWTAPDAAFDSFLITYWEIEPEGEAIFLGVPGSERSYDLTGLKPGTEYRVQINGVKGGTISYPLFAGFTT
notes: FN3 domain

Cyno T-cell Binding 0.2 uM (MFI) [1]: 23500 MFI
Cyno T-cell Binding 2 uM (MFI) [1]: 53000 MFI
koff (human CD8A-Fc (in house)): 0.000235 s⁻¹
Human T-cell Binding 0.2 uM (MFI) [2]: 6850 MFI
Human T-cell Binding 2 uM (MFI) [2]: 29000 MFI
B8: P283HR7P1368_D4 (designed binder)
chain: LPAPKNLVVSRVTEDSARLSWTAPDAAFDSFAIWCVEPIPEGEAIPLFVPGSERSYDLTGLKPGTEYRVGIRGVKGGTFSSPLAAPFTT
notes: FN3 domain

Cyno T-cell Binding 0.2 uM (MFI) [1]: 826 MFI
Cyno T-cell Binding 2 uM (MFI) [1]: 18600 MFI
koff (human CD8A-Fc (in house)): 4.53e-05 s⁻¹
Human T-cell Binding 0.2 uM (MFI) [2]: 1540 MFI
Human T-cell Binding 2 uM (MFI) [2]: 13400 MFI
B10: P283HR7P1368_B12 (designed binder)
chain: B9 chain with S34G, Y36V, W38F, A39T, P40R, N41A, Q46S
notes: FN3 domain

Cyno T-cell Binding 0.2 uM (MFI) [1]: 1970 MFI
Cyno T-cell Binding 2 uM (MFI) [1]: 17300 MFI
koff (human CD8A-Fc (in house)): 0.000552 s⁻¹
Human T-cell Binding 0.2 uM (MFI) [2]: 2460 MFI
Human T-cell Binding 2 uM (MFI) [2]: 15400 MFI
B11: P283HR7P1368_H1 (designed binder)
chain: B9 chain with S34A, Y36I, W38T, P40R, N41W, Q46S, S48T, H68N, E78T
notes: FN3 domain
